Measurements as given in PMC6992781 (Nature Communications, 2020).

Molecular target: full-length RABV G (isolate 8743THA) (Rabies lyssavirus, isolate 8743THA, UniProt B2XY12, strain)
Experiment: flow cytometry on cells
Settings: one partner purified

B1: RVC20 (human broadly neutralizing monoclonal antibody, recombinant IgG1/kappa) (antibody, V domains shown)
VH: QVQLQESGPGLVKPSQTLSLTCTVSGGSFSSGSYSWNWIRQHPGKGLEWIGYIYYSGSTYYNPSLKSRVTMSVHTSKNQFSLKLNSITAADTAVYYCARGTYSDFWSGSPLDYWGQGTLVTVSS
VL: DIQMTQSPSSLSASVGDRVTITCRASQGISNYLAWFQQKPGKAPKSLIYAASSLQSGVPSRFSGSGSGTDFTLTINSLQPEDFVTYFCQQYDTYPLTFGGGTKVEIK
B1: binds.
